Assay results taken from PMC5138618.

B1: CagL^ΔRGDΔTASLI double motif deletion, recombinant (natural protein)
chain: EDITSGLKQLDSTYQETNQQVLKNLDEIFSTTSPSANNEMGEEDALNIKKAAIALLALLKANFEANELFFISEDVIFKTYMSSPELLLTYMKINPLDQNTAEQQCGISDKVLVLYCEGKLKIEQEKQNIRERLETSLKAYQSNIGGTASQTLVESLKNKNFIKGIRKLMLAHNKVFLNYLEELDALERSLEQSKRQYLQERQSSKIIVK
B2: CagL^ΔRGD motif variant, recombinant (natural protein)
chain: EDITSGLKQLDSTYQETNQQVLKNLDEIFSTTSPSANNEMGEEDALNIKKAAIALLALLKANFEANELFFISEDVIFKTYMSSPELLLTYMKINPLDQNTAEQQCGISDKVLVLYCEGKLKIEQEKQNIRERLETSLKAYQSNIGGTASLITASQTLVESLKNKNFIKGIRKLMLAHNKVFLNYLEELDALERSLEQSKRQYLQERQSSKIIVK

Tests used:
Assay in all cases: ELISA; ELISA-like multiwell assay: wells coated overnight with 100 ng/well recombinant human integrin heterodimer in 100 mM sodium carbonate pH 9.5; blocked with FCS-containing or FCS-free blocker; purified CagL (2.5, 5, 10, 20 ng/well; 10 ng for the comparison of mutants) incubated 3 h, washed; bound CagL detected with anti-CagL antiserum AK271; values relative to wild type CagL set to 100% after background subtraction
[1] = biological target: recombinant human integrin α5β1 (human) (UniProt P08648)
[2] = biological target: recombinant human integrin αvβ6 (human) (UniProt P06756)
[3] = biological target: recombinant human integrin αvβ5 (human) (UniProt P06756)
Chain of recombinant human integrin αvβ5 (human) (P06756 31-1048, chain 1 of 2): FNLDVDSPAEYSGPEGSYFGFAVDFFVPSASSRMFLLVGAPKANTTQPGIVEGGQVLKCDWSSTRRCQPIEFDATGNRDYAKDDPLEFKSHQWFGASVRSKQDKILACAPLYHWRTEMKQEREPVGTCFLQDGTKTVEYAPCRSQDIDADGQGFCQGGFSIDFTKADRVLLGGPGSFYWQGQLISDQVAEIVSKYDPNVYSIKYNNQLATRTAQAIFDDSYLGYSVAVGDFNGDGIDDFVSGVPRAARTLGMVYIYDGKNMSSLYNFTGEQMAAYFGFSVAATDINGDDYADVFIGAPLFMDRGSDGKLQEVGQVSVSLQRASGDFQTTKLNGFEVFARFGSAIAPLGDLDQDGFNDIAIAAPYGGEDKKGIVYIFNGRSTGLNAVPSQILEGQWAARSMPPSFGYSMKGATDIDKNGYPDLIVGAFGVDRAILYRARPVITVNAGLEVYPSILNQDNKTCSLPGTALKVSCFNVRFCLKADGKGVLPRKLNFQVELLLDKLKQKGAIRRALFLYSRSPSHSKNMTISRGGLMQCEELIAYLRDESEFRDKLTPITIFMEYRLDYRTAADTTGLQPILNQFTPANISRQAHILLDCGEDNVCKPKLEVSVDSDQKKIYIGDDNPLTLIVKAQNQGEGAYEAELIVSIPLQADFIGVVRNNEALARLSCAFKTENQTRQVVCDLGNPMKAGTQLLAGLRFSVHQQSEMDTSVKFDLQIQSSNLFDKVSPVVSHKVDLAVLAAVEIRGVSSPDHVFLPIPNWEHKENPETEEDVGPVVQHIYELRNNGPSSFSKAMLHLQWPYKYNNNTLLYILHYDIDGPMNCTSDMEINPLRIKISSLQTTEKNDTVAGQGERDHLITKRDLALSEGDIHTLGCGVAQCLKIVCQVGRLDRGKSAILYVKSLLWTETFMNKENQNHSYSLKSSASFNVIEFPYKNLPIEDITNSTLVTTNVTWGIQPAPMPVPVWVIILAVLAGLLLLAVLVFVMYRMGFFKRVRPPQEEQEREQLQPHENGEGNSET
Chain of recombinant human integrin αvβ5 (human) (P18084 24-719, chain 2 of 2, further chain): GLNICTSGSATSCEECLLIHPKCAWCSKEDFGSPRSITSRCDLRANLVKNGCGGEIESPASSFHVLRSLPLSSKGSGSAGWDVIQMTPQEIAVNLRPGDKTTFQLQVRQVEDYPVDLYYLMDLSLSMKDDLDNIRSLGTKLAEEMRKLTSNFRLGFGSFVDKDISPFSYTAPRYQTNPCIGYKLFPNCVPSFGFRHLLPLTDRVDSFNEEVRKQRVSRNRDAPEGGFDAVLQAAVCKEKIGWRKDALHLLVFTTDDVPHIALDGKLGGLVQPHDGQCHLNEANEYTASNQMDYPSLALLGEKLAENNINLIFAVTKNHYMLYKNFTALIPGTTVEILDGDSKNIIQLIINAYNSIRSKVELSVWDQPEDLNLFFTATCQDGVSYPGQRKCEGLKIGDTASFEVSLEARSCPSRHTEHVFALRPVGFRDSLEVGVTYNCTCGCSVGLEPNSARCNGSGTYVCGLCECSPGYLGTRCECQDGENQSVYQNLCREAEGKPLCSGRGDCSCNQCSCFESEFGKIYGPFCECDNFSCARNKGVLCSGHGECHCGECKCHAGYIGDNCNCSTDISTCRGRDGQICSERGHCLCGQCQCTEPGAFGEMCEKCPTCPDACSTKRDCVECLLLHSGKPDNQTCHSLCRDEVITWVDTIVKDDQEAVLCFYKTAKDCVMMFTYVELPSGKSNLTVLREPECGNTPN

Chain of recombinant human integrin α5β1 (human) (P08648 42-1049, chain 1 of 2): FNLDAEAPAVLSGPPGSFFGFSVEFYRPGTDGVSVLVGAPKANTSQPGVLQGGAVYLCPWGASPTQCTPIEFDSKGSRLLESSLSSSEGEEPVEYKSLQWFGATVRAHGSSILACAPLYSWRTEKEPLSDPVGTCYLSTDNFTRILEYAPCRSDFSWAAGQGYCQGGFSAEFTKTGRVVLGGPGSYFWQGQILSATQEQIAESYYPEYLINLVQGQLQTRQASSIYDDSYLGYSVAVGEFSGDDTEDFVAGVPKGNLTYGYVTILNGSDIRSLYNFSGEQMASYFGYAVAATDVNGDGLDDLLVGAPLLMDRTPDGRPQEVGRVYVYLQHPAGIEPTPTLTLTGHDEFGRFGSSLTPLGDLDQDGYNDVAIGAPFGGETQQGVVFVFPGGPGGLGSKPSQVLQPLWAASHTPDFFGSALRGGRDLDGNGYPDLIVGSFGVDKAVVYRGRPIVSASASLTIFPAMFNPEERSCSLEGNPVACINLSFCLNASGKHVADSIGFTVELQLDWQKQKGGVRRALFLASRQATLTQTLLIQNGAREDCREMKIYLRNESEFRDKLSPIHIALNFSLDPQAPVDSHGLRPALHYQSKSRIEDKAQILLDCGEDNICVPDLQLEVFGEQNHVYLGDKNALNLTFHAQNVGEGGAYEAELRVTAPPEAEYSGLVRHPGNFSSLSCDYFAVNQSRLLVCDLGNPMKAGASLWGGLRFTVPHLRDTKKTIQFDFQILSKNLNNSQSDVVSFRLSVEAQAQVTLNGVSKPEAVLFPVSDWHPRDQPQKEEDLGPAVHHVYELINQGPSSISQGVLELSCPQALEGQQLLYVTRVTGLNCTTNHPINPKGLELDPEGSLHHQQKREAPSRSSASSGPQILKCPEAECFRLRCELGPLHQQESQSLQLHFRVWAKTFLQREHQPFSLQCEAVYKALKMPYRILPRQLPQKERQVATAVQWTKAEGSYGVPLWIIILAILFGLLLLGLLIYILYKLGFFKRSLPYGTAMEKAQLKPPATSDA
Chain of recombinant human integrin α5β1 (human) (P05556 21-728, chain 2 of 2, further chain): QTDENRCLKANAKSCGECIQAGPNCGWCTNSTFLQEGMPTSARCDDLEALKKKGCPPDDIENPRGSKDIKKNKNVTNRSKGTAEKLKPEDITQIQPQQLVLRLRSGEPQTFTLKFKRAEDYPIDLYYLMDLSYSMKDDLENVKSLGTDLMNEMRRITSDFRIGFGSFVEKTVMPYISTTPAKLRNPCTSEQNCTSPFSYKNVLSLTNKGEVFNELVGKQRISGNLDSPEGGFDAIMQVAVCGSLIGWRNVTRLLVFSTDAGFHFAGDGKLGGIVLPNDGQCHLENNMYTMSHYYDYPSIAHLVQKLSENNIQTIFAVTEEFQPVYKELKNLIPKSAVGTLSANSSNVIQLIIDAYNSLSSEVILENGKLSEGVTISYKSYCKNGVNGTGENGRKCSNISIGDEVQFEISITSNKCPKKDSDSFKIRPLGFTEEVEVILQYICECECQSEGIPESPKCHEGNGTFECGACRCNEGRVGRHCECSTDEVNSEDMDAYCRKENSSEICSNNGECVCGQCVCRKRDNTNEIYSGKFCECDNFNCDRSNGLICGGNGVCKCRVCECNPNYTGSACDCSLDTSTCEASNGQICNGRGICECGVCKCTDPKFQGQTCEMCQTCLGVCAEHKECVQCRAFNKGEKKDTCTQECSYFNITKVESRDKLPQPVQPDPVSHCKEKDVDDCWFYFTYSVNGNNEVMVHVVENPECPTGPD
Chain of recombinant human integrin αvβ6 (human) (P06756 31-1048, chain 1 of 2): as the sequence (P06756 31-1048, chain 1 of 2) above
Chain of recombinant human integrin αvβ6 (human) (P18564 22-709, chain 2 of 2, further chain): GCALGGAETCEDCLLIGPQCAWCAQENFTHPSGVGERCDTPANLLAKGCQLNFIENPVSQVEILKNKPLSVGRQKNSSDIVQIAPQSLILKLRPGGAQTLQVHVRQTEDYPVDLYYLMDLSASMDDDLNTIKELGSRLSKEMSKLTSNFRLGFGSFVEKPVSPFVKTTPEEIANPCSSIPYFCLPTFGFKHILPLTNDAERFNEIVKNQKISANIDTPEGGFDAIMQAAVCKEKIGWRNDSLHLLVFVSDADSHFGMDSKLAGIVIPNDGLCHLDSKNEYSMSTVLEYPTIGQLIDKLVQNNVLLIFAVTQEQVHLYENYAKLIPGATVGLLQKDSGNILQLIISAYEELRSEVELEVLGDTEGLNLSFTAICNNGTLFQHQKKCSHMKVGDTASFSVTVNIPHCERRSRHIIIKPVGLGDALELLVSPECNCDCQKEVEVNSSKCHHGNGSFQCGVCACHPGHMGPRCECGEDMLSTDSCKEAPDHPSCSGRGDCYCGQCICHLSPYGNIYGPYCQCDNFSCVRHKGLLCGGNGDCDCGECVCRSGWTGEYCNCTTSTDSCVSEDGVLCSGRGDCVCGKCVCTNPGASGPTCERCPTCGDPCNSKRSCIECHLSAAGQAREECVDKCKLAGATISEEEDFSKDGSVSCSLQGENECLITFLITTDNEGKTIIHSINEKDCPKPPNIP

Row | Binder | binding in percent of wild type CagL [1] [%] | binding in percent of wild type CagL [2] [%] | binding in percent of wild type CagL [3] [%]
1 | B1 | < 36 | < 36 | < 36
2 | B2 | < 50 | < 50 | < 50
